# Source: PMC7826282
# Target: mutant forms of RUVBL1 and RUVBL2
# Assay: co-IP
binder,measurement,value
RL-NOP58 (natural protein) MLVLFETSVGYAIFKVLNEKKLQEVDSLWKEFETPEKANKIVKLKHFEKFQDTAEALAAFTALMEGKINKQLKKVLKKIVKEAHEPLAVADAKLGGVIKEKLNLSCIHSPVVNELMRGIRSQMDGLIPGVEPREMAAMCLGLAHSLSRYRLKFSADKVDTMIVQAISLLDDLDKELNNYIMRCREWYGWHFPELGKIISDNLTYCKCLQKVGDRKNYASAKLSELLPEEVEAEVKAAAEISMGTEVSEEDICNILHLCTQVIEISEYRTQLYEYLQNRMMAIAPNVTVMVGELVGARLIAHAGSLLNLAKHAASTVQILGAEKALFRALKSRRDTPKYGLIYHASLVGQTSPKHKGKISRMLAAKTVLAIRYDAFGEDSSSAMGVENRAKLEARLRTLEDRGIRKISGTGKALAKTEKYEHKSEVKTYDPSGDSTLPTCSKKRKIEQVDKEDEITEKKAKKAKIKVKVEEEEEEKVAEEEETSVKKKKKRGKKKHIKEEPLSEEEPCTSTAIASPEKKKKKKKKRENED,co-IP efficiency,< 0.1%
